Measurements taken from the supplement of paper PMC9942255.

Test system: Bacillus subtilis DB104 (SP-AmyQ fusion secretion)
Test: AmyQ secretion efficiency, weighted average sort bin (1 = best secretion, 10 = worst) (bin number (weighted average, 1-10)); higher = lower secretion efficiency
Procedure, shortened: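 B. subtilis DB104 library expressing mature AmyQ fused to designed signal peptides (amyE-integrated) was encapsulated at about 0.3 cells per ~65 nL alginate bead with fluorescein-starch, grown about 13 h at room temperature and nile red stained. Occupied beads were sorted by large-particle flow cytometry into 10 equally populated bins by green/red fluorescence ratio, and each bin's amplicons were Illumina-sequenced. Secretion score is the read-frequency-weighted average bin number, normalised to beads per bin, excluding low-abundance sequences.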

Row | Sequence | AmyQ secretion efficiency
1 | MLKKKWMVGLLAGCLAAGGFSYNAFAKRK | 5.47
2 | MTKIGLLFMLCLAALFTIGFPAQQADAAEA | 3.42
3 | MGFGSTLVVSALSISALALSVSGVASAHEI | 3.47
4 | MKRKLLSSLAISALSLGLLVSAPTAGFAAES | 3.25
5 | MKKGIIRTGRQSFVLFFALSTGITGVQAAPA | 5.13
6 | MKKKQVSHARSTKTRRQFVIAVFHTIHASELTP | 8.17
7 | MKKRFFGPIILAFILFAGAIEIPS | 5.48
8 | MKKTMTIGLLFMLCLAALFTIGFPAQQADAAEA | 2.9
9 | MKKWIYVVLVLSIAGIGGFSLHAASS | 6.87
10 | MIAYFGKCLLLVTIMFLGVLFGMFQANHG | 6.57
11 | MKWMCKRCCRRKRLAGGAAQAEAV | 7.06
12 | MAIIIAIIAAVIVIAALITFNVVNASPG | 8.99
13 | MFNRLFRVCFLAALIMAFTLPNSVYVQKP | 6.52
14 | MHLIRQSQGYCQYTVLIAGCRFNEDQHQAEGENT | 6.47
15 | MKKVLMAFIICLSLILSVLAAPPSGCKAESV | 1.89
16 | MFKKHTISLLIIFLLAATFFSFTSLISAVLAKPIEAHTV | 4.38
17 | MKVLLSALLLLLFAFEPSDSGKKL | 6.13
18 | MKWMCSICCAAVLLAGGAIQAEAV | 2.58
19 | MKKRFFGPIILAFILFAGAIDIPS | 6.03
20 | MTKLKMLSMLTVMIASLFIFSSQQLAVQY | 6.53
21 | MLKKIALTLCPAIVGSLLFFTAPWSAHVS | 4.74
22 | MRMLWRSLALCGLALTLAPCPQAAEP | 6.73
23 | MRNLTKTSLLLAGLCTAAQMVFVTHTFTFVGASAEES | 7.25
24 | MKTKTLFIFSAILTLSIEDEDEETFAQTA | 5.99

Row | Sequence | AmyQ secretion efficiency
25 | MTTKFTALAVFLLCFMPAAVIEHTQASLL | 5.46
26 | MKQFAITLSVLCALILLVPTLLVIPFVSAAEAGASV | 3.34
27 | MKKRKRRNFKRFIAAFLVLALMISLVPADVLKKST | 6.16
28 | MKRQCYWTYQSSRQLVLLPGKALGAVD | 8.11
29 | MMGIMIFLTSFMLLAMTGQTALAKDV | 3.75
30 | MAIIIAIIAAVIVIAALITFIVIVIRNASPG | 6.93
31 | MLKKIALTLCPAIVGSLLFFTAPASAHKK | 1.72
32 | MKTKTLFIFSAILTLSIFAPNESFAQTA | 2.17
33 | MKRMIVRMTLPLLIVCLAFSSFSASARVASE | 4.86
34 | MLKRTSFVSSLRRKRKKLLSILLPSGQAHAQSA | 6.99
35 | MRKKRNVITCVMAASLTLGSLLPAGYASAKED | 3.03
36 | MLCVMMLLFSAIASFPVSAQAAPQ | 4.18
37 | MSGTIFFGPIILAFILFAGAIAIPS | 6.8
38 | MRMLWRSKRLCGLALTLAPCAQAAEP | 6.7
39 | MTKKTKNRLISSVLSTVVISSLLFPGAAGASSK | 1.56
40 | MLKKKWMVGLLAGCLAAGGFSYNGFATEN | 6.08
41 | MKKLSVAVAASFMSLSISLPGVQAAEG | 1.57
42 | MKLKKRVSMFKKALTMCGGLFVTPAKAVKT | 7.21
43 | MKKTIMSFVAVAALSTTAFGAHASTKEI | 5.13
44 | MKKAAAVLLSLGLVFGFSYGAGHVWEAKTK | 5.37
45 | MKNMSCKLRKKKTLFFSFLTIGPLAHAQNS | 6.98
46 | MKSCKQLIVCSLAAILLLDPQPSFAADS | 4.16
47 | MGSTGSIMFACLILFSFTITTFINTETISAFSN | 4.71
48 | MTGGVILAAFILVGSTLGAFSFSSDASAKHV | 3.83

Row | Sequence | AmyQ secretion efficiency
49 | MKRLLVSLRVWMVFLMNWVTPDRKTYAAAVY | 6.89
50 | MHLIRAAGAVCLAVVLIAGCRFNEDQHQVEGENT | 4.66
51 | MKKAFLVFLSVVLVTTVFLVKQQESVAQVKQL | 3.34
52 | MLFIFVITCVMAASLTLGSLLPAGYATAKED | 4.43
53 | MKKIGLLFMLCLAALFTIGFPAQQADAEED | 2.27
54 | MTKRYGQTKTYKGTTTTAVLAAVFYLTDEDQAAAV | 6.8
55 | MKKRITYSLRRLLAVVAFAFTDSSKAKAAEA | 5.28
56 | MLTKRLLTIYIMLLGLIDDDPGAAQAEEK | 9.93
57 | MRKYTVIASILLSFLSVLSGGHHEVATSKAFPV | 3.74
58 | MKKKQVMLALTAAAGLGLTALHSAPAAKHAPL | 4.9
59 | MNFKKTVVSALSISALALEEEGVASAHEI | 7.3
60 | MKKRITYSLLALLAVVAFAFTDSSKTKAAEA | 4
61 | MLKKKWMVGLLAGCLAAGGFSYNAFPTEN | 5.71
62 | MKKRLIGFLVLVPALIMSGITLYEANKK | 5.95
63 | MKKTIMSFVAVAALSTTAFQPHASAKEI | 2.23
64 | MKSKWMSGLLLVAVGFSFTQVMAHAGET | 7.06
65 | MMTLCVMMLLFSAIASFPVSAQAKDQ | 7.11
66 | MKKLLAAGIIGLLTVSIASPTFAAEK | 2.52
67 | MFNRLFRVCFLAALIMAFTLPNSPYAQKP | 7.43
68 | MKVCQKSIVRFLVSLIIGTFVISVPFMANAQSK | 2.23
69 | MRGKSAVLLSLIMLIAGFLIYFSFQM | 8.11
70 | MKLAKRTSALTPSTTLAITAKAKEL | 6.93
71 | MLCVMMLLFSAIATFVVVAQAKDQ | 6.49
72 | MKKLILAFILSAAAAVGLFTFGGVQQASAKEL | 4

Row | Sequence | AmyQ secretion efficiency
73 | MKKAAAVLLSLGLVFKKRRRKKHVAEAKTK | 7.39
74 | MLSSKWMVGLLAGCLAAGGFSYNAFATEN | 3.83
75 | MAIIIAIIAAVIVIAALITFNVFNASPG | 7.58
76 | MKRTWNGCGQGQLSVLLVAGSVPFHAEAKKP | 2.05
77 | MKLKKRVSMFLVALTMCGGLFVTPAKAVTD | 3.07
78 | MKLAKRVSALTPSTTLAITAKNKEL | 8.25
79 | MKNMSCKLVVSVTLFFSFLTIGPLAHADDE | 3.5
80 | MLCVMMLLFSAIAVSFPVSAQAKDQ | 5.09
81 | MPIKKKVMMCSKVTLVFGSMSFPTLTNSGGFKE | 7.22
82 | MLTKRLLLTIYIMLLGLIAWFPGAAQAEEK | 2.22
83 | MKKAAAVLLSLGLVFGFSYGAGHVNEAKTK | 5.96
84 | MKRLLVSLRVWMVFLMNWVTPDRKTAAAAEE | 6.3
85 | MLCVMMLLFSAIASFPVSFTFPAFATAQAKDQ | 7.71
86 | MGGGFSILIMMTGLLFGLTSPAFAAEK | 3.63
87 | MKKVLMAFIICLSLILSVLAAPPSGNKAESV | 4.42
88 | MHLIRAAGAVCLAVVLIAGCRFNEDQHQAELENT | 6.53
89 | MKVLLSALLLLLFAFEPSASCKKL | 4.65
90 | MIAYFGKCGYKYGRTRLGVLFGMQQANHG | 8.61
91 | MKVPKTMLLSTAAGLLLSLTATSVSAHRK | 4.68
92 | MKKVKKRKRKCLSLILSVLAAPPSGAKAESV | 7.36
93 | MRPVFPLILSAVLFLSCFFGARQTELSASKR | 3.47
94 | MRSKKLWISLLFALTLIFTMAFSNMSAQAAGQ | 2.13
95 | MKRTWNVCLTALLSVLLVAGSVPFHVEAKKP | 2
